Some results are limits rather than exact numbers.

For the data set, the target named is T1, phiC31 integrase (Streptomyces phage phiC31) (UniProt Q9T221).
T1 sequence: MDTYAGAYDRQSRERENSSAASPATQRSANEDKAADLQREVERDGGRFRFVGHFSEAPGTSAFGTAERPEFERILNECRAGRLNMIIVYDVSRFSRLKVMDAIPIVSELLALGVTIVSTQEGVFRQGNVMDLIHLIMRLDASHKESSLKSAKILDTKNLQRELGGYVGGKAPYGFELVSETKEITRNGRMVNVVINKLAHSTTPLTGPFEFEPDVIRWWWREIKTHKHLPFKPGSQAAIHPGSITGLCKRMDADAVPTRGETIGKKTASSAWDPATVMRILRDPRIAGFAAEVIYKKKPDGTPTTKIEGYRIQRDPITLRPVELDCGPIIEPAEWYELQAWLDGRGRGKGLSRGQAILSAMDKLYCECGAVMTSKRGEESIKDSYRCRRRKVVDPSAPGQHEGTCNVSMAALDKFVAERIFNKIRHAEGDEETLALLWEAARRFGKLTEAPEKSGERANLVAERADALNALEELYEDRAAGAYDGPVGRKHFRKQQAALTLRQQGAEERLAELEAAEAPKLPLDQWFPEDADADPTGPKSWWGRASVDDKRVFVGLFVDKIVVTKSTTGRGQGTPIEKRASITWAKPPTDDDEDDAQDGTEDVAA
In words: cell_activity.

For the substance “GGTGCCAGGGCGTGCCCTTGGGCTCCCCGGGCGCGTACTGAANTATACAAA (double strand) [phiC31 attB (36 bp, in pAcceptor 5' of promoterless camR)]”, the activity (recombination partner of attP in E. coli TG1, camR selection) is above 90%.
Consider “phiC31 attP (36 bp, used as scFv linker in pDonor)”, for which the activity (co-integration of pDonor attP with pAcceptor attB in E. coli TG1, camR/ampR ratio versus already co-integrated plasmid) was above 90%.

Values taken from patent US20160362476.
